Results as given in paper PMC2562705 (Biochemistry, 2008).
Like-named read-outs stand apart in the source and are kept apart here.

Experiments:
[1] = target: RhamD from Gibberella zeae (Fusarium graminearum, UniProt D0VX14); settings: kinetic data not shown
[2] = target: T1, RhamD from Azotobacter vinlandii (Azotobacter vinelandii, UniProt C1DMY1); assay: dehydration activity; format: biochemical; settings: kinetic data not shown
T1 sequence (C1DMY1 1-394): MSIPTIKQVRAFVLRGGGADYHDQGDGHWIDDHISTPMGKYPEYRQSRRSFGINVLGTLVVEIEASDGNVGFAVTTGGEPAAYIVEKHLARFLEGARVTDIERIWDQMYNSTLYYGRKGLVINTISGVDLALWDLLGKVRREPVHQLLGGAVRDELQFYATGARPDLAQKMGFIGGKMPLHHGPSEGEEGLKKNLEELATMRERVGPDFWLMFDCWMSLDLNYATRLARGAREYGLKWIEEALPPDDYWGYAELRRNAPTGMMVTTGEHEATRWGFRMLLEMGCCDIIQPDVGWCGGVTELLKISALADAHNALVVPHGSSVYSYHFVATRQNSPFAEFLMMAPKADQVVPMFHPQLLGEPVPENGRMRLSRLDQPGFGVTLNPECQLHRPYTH

crystal structure [3] = target: the molecule itself; assay: crystal structure
dehydration [4] = substrate: O=C(O)[C@H](O)[C@H](O)[C@@H](O)[C@@H](O)CO; assay: dehydration; format: biochemical, Escherichia coli; settings: 5 mM MgCl2, Tris-HCl pH 7.9 or K-Hepes pH 7.5, 25 °C
dehydration [5] = substrate: C[C@H](O)[C@H](O)[C@@H](O)[C@@H](O)C(=O)O; assay: dehydration; format: biochemical, Escherichia coli; settings: 5 mM MgCl2, Tris-HCl pH 7.9 or K-Hepes pH 7.5, 25 °C
dehydration [6] = substrate: O=C(O)[C@H](O)[C@H](O)[C@@H](O)CO; assay: dehydration; format: biochemical, Escherichia coli; settings: 5 mM MgCl2, Tris-HCl pH 7.9 or K-Hepes pH 7.5, 25 °C
dehydration [7] = substrate: O=C(O)[C@H](O)[C@H](O)[C@@H](O)[C@@H](O)CO; assay: dehydration; format: biochemical, Salmonella enterica; settings: 5 mM MgCl2, Tris-HCl pH 7.9 or K-Hepes pH 7.5, 25 °C
dehydration [8] = substrate: C[C@H](O)[C@H](O)[C@@H](O)[C@@H](O)C(=O)O; assay: dehydration; format: biochemical, Salmonella enterica; settings: 5 mM MgCl2, Tris-HCl pH 7.9 or K-Hepes pH 7.5, 25 °C
dehydration [9] = substrate: O=C(O)[C@H](O)[C@H](O)[C@@H](O)CO; assay: dehydration; format: biochemical, Salmonella enterica; settings: 5 mM MgCl2, Tris-HCl pH 7.9 or K-Hepes pH 7.5, 25 °C
crystal structure [10] = target: the molecule itself; assay: crystal structure; remark: listed apart in the source

Sequence of RhamD from Gibberella zeae (D0VX14 1-450): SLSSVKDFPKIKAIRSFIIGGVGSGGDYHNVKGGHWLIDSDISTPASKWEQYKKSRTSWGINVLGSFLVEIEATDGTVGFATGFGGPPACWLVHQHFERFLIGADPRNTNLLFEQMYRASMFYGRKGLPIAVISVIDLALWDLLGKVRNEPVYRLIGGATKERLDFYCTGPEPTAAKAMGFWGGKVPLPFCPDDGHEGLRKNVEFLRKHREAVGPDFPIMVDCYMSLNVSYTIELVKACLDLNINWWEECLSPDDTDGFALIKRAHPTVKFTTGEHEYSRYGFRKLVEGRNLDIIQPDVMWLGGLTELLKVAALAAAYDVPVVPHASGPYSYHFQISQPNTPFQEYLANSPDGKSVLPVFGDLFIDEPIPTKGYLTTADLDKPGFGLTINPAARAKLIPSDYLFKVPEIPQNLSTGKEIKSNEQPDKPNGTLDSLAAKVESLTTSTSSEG

For C[C@H](O)[C@H](O)[C@@H](O)[C@@H](O)C(=O)O [L-rhamnonate], the dehydration activity [1] was “Each of these homologues catalyzes the RhamD reaction” and the dehydration activity [2] was “Each of these homologues catalyzes the RhamD reaction”.

B1: L-rhamnonate dehydratase (RhamD) from Escherichia coli K-12 (enzyme, E. coli K-12)
chain: MTLPKIKQVRAWFTGGATAEKGAGGGDYHDQGANHWIDDHIATPMSKYRDYEQSRQSFGINVLGTLVVEVEAENGQTGFAVSTAGEMGCFIVEKHLNRFIEGKCVSDIKLIHDQMLSATLYYSGSGGLVMNTISCVDLALWDLFGKVVGLPVYKLLGGAVRDEIQFYATGARPDLAKEMGFIGGKMPTHWGPHDGDAGIRKDAAMVADMREKCGEDFWLMLDCWMSQDVNYATKLAHACAPYNLKWIEECLPPQQYESYRELKRNAPVGMMVTSGEHHGTLQSFRTLSETGIDIMQPDVGWCGGLTTLVEIAAIAKSRGQLVVPHGSSVYSHHAVITFTNTPFSEFLMTSPDCSTMRPQFDPILLNEPVPVNGRIHKSVLDKPGFGVELNRDCNLKRPYSH
In the case of B1, the “stoichiometry N” value (crystal structure [3]) is reported as 8, the Km (dehydration [4]) is reported as 150 ± 60 µM and the kcat (dehydration [4]) is reported as 0.2 ± 0.1 s⁻¹. It also gave a kcat/Km (dehydration [4]) of 1300 M⁻¹ s⁻¹, a Km (dehydration [5]) of 150 ± 70 µM and a kcat (dehydration [5]) of 3.2 ± 0.2 s⁻¹. For the same molecule, the kcat/Km (dehydration [5]) was 21000 M⁻¹ s⁻¹, the Km (dehydration [6]) was 2000 ± 300 µM and the kcat (dehydration [6]) was 0.6 ± 0.03 s⁻¹. For the same molecule, the kcat/Km (dehydration [6]) was 300 M⁻¹ s⁻¹.

B2: YfaW / ecRhamD (RhamD from E. coli K-12) (Escherichia coli K-12; H325N) (protein)
chain: MTLPKIKQVRAWFTGGATAEKGAGGGDYHDQGANHWIDDHIATPMSKYRDYEQSRQSFGINVLGTLVVEVEAENGQTGFAVSTAGEMGCFIVEKHLNRFIEGKCVSDIKLIHDQMLSATLYYSGSGGLVMNTISCVDLALWDLFGKVVGLPVYKLLGGAVRDEIQFYATGARPDLAKEMGFIGGKMPTHWGPHDGDAGIRKDAAMVADMREKCGEDFWLMLDCWMSQDVNYATKLAHACAPYNLKWIEECLPPQQYESYRELKRNAPVGMMVTSGEHHGTLQSFRTLSETGIDIMQPDVGWCGGLTTLVEIAAIAKSRGQLVVPNGSSVYSHHAVITFTNTPFSEFLMTSPDCSTMRPQFDPILLNEPVPVNGRIHKSVLDKPGFGVELNRDCNLKRPYSH
Molecule B2 has a Km (dehydration [5]) of 300 ± 30 µM, a kcat (dehydration [5]) of 0.0005 ± 0.0001 s⁻¹ and a kcat/Km (dehydration [5]) of 1.6 M⁻¹ s⁻¹.

B3: YfaW / ecRhamD (RhamD from E. coli K-12) (Escherichia coli K-12; H277N) (protein)
chain: MTLPKIKQVRAWFTGGATAEKGAGGGDYHDQGANHWIDDHIATPMSKYRDYEQSRQSFGINVLGTLVVEVEAENGQTGFAVSTAGEMGCFIVEKHLNRFIEGKCVSDIKLIHDQMLSATLYYSGSGGLVMNTISCVDLALWDLFGKVVGLPVYKLLGGAVRDEIQFYATGARPDLAKEMGFIGGKMPTHWGPHDGDAGIRKDAAMVADMREKCGEDFWLMLDCWMSQDVNYATKLAHACAPYNLKWIEECLPPQQYESYRELKRNAPVGMMVTSGENHGTLQSFRTLSETGIDIMQPDVGWCGGLTTLVEIAAIAKSRGQLVVPHGSSVYSHHAVITFTNTPFSEFLMTSPDCSTMRPQFDPILLNEPVPVNGRIHKSVLDKPGFGVELNRDCNLKRPYSH
Molecule B3 has a Km (dehydration [5]) of 8800 ± 900 µM, a kcat (dehydration [5]) of 0.09 ± 0.01 s⁻¹ and a kcat/Km (dehydration [5]) of 10 M⁻¹ s⁻¹.

B4: stRhamD (RhamD from S. typhimurium LT2) (Salmonella enterica subsp. enterica serovar Typhimurium str. LT2) (protein)
chain: MENIMTLPKIKHVRAWFIGGATAEKGAGGGDYHDQGGNHWIDDHIATPMSKYRDYEQSRQSFGINVLGTLIVEVEAENRQTGFAVSTAGEMGCFIVEKHLNRFIEGKCVSDIKLIHDQMLGATMYYSGSGGLVMNTISCVDLALWDLFGKVVGLPVYKLLGGAVRDEIQFYATGARPDLAKEMGFIGGKMPTHWGPHDGDAGIRKDAAMVADMREKCGPDFWLMLDCWMSQDVNYATKLAHACAPFNLKWIEECLPPQQYEGYRELKRNAPAGMMVTSGEHHGTLQSFRTLAETGIDIMQPDVGWCGGLTTLVEIAALAKSRGQLVVPHGSSVYSHHAVITFTNTPFSEFLMTSPDCSTLRPQFDPILLDEPVPVNGRIHKSVLDKPGFGVELNRDCHLKRPYSH
With B4 the Km (dehydration [7]) was 60 ± 40 µM, the kcat (dehydration [7]) was 0.1 ± 0.06 s⁻¹ and the kcat/Km (dehydration [7]) was 1700 M⁻¹ s⁻¹. For the same molecule, the Km (dehydration [8]) was 250 ± 80 µM, the kcat (dehydration [8]) was 3.9 ± 1.6 s⁻¹ and the kcat/Km (dehydration [8]) was 16000 M⁻¹ s⁻¹. It also gave a Km (dehydration [9]) of 1600 ± 1200 µM, a kcat (dehydration [9]) of 0.05 ± 0.03 s⁻¹ and a kcat/Km (dehydration [9]) of 30 M⁻¹ s⁻¹.

B5: L-rhamnonate dehydratase (RhamD) from Salmonella typhimurium LT2 (enzyme)
chain: ENIMTLPKIKHVRAWFIGGATAEKGAGGGDYHDQGGNHWIDDHIATPMSKYRDYEQSRQSFGINVLGTLIVEVEAENRQTGFAVSTAGEMGCFIVEKHLNRFIEGKCVSDIKLIHDQMLGATMYYSGSGGLVMNTISCVDLALWDLFGKVVGLPVYKLLGGAVRDEIQFYATGARPDLAKEMGFIGGKMPTHWGPHDGDAGIRKDAAMVADMREKCGPDFWLMLDCWMSQDVNYATKLAHACAPFNLKWIEECLPPQQYEGYRELKRNAPAGMMVTSGEHHGTLQSFRTLAETGIDIMQPDVGWCGGLTTLVEIAALAKSRGQLVVPHGSSVYSHHAVITFTNTPFSEFLMTSPDCSTLRPQFDPILLDEPVPVNGRIHKSVLDKPGFGVELNRDCHLKRPYSH
B5 was tested, and the “stoichiometry N” value (crystal structure [10]) was 8.
